Assay results as given in IntAct's records for PubMed 19109891.

B1: Dystrophin (Homo sapiens), P11532-5 (parent)
chain: MREQLKGHETQTTCWDHPKMTELYQSLADLNNVRFSAYRTAMKLRRLQKALCLDLLSLSAACDALDQHNLKQNDQPMDILQIINCLTTIYDRLEQEHNNLVNVPLCVDMCLNWLLNVYDTGRTGRIRVLSFKTGIISLCKAHLEDKYRYLFKQVASSTGFCDQRRLGLLLHDSIQIPRQLGEVASFGGSNIEPSVRSCFQFANNKPEIEAALFLDWMRLEPQSMVWLPVLHRVAAAETAKHQAKCNICKECPIIGFRYRSLKHFNYDICQSCFFSGRVAKGHKMHYPMVEYCTPTTSGEDVRDFAKVLKNKFRTKRYFAKHPRMGYLPVQTVLEGDNMETPASSPQLSHDDTHSRIEHYASRLAEMENSNGSYLNDSISPNESIDDEHLLIQHYCQSLNQDSPLSQPRSPAQILISLESEERGELERILADLEEENRNLQAEYDRLKQQHEHKGLSPLPSPPEMMPTSPQSPRDAELIAEAKLLRQHKGRLEARMQILEDHNKQLESQLHRLRQLLEQPQAEAKVNGTTVSSPSTSLQRSDSSQPMLLRVVGSQTSDSMGEEDLLSPPQDTSTGLEEVMEQLNNSFPSSRGHNVGSLFHMADDLGRAMESLVSVMTDEEGAE

Variants of: B1
Conditions: with ank2_human ANK2, Q01484
ank2_human ANK2, Q01484, sequence (Q01484 whole entry): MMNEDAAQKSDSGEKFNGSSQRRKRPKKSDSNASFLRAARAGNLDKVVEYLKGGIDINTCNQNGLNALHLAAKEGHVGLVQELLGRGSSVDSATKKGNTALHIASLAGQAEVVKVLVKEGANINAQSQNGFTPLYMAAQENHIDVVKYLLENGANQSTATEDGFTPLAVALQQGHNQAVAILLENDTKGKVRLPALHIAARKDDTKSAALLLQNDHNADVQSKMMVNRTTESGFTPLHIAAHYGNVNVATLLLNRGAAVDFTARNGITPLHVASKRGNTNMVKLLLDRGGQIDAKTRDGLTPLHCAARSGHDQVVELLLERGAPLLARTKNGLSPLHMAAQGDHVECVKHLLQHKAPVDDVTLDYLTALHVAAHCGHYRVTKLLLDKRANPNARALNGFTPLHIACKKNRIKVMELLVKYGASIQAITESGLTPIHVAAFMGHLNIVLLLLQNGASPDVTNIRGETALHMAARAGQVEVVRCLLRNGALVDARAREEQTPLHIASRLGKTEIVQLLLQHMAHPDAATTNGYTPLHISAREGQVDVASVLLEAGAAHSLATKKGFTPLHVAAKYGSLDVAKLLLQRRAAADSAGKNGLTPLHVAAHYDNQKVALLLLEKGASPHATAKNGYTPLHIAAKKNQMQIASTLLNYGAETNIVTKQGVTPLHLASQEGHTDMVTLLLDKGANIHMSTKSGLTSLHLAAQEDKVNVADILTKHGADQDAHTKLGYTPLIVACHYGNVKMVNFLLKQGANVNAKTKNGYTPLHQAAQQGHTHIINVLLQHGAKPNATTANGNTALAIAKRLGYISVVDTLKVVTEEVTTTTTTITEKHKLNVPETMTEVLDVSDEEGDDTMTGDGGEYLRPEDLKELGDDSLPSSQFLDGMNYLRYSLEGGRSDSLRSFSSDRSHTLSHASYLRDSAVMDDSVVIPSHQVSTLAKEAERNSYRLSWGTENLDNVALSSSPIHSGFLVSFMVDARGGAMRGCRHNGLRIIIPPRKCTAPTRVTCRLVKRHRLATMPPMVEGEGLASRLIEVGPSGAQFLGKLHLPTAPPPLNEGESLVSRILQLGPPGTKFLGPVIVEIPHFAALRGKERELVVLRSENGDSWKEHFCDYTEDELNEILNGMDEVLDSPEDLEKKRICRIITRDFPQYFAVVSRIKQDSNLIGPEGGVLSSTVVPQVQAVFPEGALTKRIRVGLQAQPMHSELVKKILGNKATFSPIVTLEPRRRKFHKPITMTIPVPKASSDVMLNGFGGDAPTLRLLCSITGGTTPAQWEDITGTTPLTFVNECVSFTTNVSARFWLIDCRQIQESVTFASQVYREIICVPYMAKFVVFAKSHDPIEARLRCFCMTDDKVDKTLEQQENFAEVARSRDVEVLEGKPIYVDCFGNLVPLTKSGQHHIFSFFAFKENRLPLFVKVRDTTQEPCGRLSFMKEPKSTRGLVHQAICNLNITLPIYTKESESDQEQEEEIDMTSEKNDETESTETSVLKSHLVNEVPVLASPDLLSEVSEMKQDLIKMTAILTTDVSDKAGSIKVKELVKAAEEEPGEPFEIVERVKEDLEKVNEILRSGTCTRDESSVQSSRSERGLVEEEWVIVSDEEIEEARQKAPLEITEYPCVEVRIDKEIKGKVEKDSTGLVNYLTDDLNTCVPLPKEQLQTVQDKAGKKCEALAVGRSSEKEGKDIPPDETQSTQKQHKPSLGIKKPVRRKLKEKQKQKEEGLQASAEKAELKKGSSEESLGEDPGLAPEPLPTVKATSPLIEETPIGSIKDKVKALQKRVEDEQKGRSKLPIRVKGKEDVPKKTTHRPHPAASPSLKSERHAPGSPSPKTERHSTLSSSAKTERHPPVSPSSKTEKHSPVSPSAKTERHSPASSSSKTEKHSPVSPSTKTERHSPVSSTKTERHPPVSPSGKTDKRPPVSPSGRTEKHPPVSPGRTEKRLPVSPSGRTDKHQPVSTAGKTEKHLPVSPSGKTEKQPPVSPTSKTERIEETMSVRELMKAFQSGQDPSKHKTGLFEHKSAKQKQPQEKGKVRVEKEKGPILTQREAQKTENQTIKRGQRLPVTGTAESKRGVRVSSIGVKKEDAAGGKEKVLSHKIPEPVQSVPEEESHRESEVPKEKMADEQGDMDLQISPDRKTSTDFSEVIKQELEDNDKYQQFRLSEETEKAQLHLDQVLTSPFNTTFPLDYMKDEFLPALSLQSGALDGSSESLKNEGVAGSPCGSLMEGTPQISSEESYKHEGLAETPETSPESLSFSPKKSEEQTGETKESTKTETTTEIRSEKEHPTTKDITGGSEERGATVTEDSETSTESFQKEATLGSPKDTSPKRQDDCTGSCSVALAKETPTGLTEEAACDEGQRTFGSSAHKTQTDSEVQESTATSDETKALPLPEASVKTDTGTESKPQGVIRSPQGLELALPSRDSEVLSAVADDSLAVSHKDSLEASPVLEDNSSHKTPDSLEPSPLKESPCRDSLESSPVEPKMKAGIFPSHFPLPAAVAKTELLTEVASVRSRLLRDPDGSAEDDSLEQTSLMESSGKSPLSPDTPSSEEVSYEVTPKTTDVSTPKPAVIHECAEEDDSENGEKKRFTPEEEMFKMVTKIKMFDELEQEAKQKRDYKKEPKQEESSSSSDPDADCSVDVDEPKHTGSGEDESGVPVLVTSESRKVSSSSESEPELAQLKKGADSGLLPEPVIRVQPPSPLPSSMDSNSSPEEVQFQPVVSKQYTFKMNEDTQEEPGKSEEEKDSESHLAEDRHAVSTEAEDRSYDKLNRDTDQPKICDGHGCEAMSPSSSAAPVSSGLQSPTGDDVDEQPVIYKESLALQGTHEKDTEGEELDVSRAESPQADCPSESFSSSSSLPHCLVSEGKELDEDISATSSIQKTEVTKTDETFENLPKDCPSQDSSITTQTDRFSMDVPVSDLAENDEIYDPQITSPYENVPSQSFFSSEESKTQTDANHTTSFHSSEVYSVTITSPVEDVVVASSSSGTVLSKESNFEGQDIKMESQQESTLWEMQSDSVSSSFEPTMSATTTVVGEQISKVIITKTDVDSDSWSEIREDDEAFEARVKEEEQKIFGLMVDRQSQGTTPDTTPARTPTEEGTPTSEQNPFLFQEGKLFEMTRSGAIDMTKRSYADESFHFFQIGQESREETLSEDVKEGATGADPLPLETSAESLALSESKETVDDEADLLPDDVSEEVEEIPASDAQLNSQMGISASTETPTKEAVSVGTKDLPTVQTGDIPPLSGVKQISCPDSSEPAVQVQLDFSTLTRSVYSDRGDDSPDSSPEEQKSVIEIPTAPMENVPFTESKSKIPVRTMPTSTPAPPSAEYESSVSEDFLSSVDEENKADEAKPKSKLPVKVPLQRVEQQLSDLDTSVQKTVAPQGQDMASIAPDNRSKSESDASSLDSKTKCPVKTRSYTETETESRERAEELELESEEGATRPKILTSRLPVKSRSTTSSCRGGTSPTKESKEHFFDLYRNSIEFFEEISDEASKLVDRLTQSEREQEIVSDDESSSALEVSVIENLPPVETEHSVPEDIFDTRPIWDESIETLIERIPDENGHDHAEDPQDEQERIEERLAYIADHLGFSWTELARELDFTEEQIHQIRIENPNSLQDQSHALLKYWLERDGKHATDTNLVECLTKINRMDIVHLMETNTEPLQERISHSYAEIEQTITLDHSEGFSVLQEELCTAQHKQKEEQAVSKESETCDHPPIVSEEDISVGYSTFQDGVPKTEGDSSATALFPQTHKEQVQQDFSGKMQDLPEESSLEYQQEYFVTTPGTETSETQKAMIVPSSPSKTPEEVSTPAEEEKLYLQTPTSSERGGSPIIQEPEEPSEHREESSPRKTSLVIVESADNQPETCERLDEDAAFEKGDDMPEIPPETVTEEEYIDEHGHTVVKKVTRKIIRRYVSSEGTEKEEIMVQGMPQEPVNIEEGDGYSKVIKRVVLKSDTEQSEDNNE

| effect of a mutation on the interaction | Variant |
| --- | --- |
| decreasing interaction | D267N |
